Assay results taken from US20250230251A1 (Bristol-Myers Squibb, published 2025).

Key:
cyIL-18Rβ-HisAvi [1] = target: T1, cyIL-18Rβ-HisAvi (cynomolgus monkey); experiment: SPR T200, mAb on anti-hFc, 37C, pH 6
T1 construct: Soluble analyte in SPR; also called cyno IL-18Rβ; cynomolgus monkey IL-18Rβ
T1 chain: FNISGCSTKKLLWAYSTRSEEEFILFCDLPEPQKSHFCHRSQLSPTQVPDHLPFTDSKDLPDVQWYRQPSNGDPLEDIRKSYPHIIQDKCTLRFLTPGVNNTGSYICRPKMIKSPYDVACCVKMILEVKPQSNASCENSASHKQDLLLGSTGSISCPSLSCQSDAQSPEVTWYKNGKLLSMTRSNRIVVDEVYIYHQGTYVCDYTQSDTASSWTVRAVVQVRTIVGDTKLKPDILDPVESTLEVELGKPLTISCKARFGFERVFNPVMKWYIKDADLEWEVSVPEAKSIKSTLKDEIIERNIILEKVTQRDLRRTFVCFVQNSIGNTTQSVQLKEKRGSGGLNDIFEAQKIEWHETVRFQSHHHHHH

huIL-18Rβ-HisAvi [2] = target: T2, huIL-18Rβ-HisAvi (human, UniProt O95256 20-356, biotinylated in the Octet blocking assay); experiment: SPR T200, mAb on anti-hFc, 37C, pH 6
T2 construct: Soluble analyte in all SPR runs; captured on streptavidin sensors in the Octet assay; also called human IL-18Rβ; human IL-18Rβ-Avi-His
T2 sequence: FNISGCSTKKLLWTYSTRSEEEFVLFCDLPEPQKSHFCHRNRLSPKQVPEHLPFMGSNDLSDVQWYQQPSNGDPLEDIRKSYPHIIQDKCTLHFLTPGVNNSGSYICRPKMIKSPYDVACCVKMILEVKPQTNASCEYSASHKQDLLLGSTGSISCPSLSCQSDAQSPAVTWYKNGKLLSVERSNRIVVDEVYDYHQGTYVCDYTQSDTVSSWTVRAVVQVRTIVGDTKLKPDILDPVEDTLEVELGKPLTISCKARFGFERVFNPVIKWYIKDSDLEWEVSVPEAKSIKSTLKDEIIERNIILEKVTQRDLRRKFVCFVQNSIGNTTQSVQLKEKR

huIL-18Rβ-HisAvi [3] = target: T2, huIL-18Rβ-HisAvi; experiment: SPR T200, pH 7.4; sample stored at pH 6, 4 w 40C
huIL-18Rβ-HisAvi [4] = target: T2, huIL-18Rβ-HisAvi; experiment: SPR T200, pH 7.4; sample stored at pH 8, T0
human IL-18Rβ on cells = target: T3, human IL-18Rβ on cells (human, UniProt O95256 20-599); experiment: cell-based or functional assay
T3 sequence: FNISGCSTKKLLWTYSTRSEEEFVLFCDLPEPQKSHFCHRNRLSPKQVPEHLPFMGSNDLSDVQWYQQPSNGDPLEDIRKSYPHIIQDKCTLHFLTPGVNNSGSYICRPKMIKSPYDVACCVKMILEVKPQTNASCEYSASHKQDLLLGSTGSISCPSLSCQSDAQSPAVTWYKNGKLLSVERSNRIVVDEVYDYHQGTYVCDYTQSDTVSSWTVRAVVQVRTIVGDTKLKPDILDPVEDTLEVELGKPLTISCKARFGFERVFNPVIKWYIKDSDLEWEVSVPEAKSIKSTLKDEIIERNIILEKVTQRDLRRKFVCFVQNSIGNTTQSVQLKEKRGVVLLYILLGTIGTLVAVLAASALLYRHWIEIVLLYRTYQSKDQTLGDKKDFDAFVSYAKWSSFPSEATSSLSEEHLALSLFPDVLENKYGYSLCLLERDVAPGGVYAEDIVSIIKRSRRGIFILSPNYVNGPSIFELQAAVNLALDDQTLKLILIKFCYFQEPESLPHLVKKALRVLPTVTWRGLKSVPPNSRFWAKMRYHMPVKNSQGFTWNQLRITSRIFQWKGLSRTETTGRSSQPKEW

huIL-18Rβ-HisAvi [5] = target: T2, huIL-18Rβ-HisAvi; experiment: SPR T200, pH 7.4; sample stored at pH 8, 4 w 4C
cyIL-18Rβ-HisAvi [6] = target: T1, cyIL-18Rβ-HisAvi; experiment: SPR screen, 1:1 fit
huIL-18Rβ-HisAvi [7] = target: T2, huIL-18Rβ-HisAvi; experiment: SPR screen, 1:1 fit
cyIL-18Rβ-HisAvi [8] = target: T1, cyIL-18Rβ-HisAvi; experiment: SPR T200, mAb on anti-hFc, 37C, pH 7.4
huIL-18Rβ-HisAvi [9] = target: T2, huIL-18Rβ-HisAvi; experiment: SPR T200, mAb on anti-hFc, 37C, pH 7.4
cyIL-18Rβ-HisAvi [10] = target: T1, cyIL-18Rβ-HisAvi; experiment: SPR T200, mAb on anti-hFc, 37C, pH 6
huIL-18Rβ-HisAvi [11] = target: T2, huIL-18Rβ-HisAvi; experiment: SPR T200, mAb on anti-hFc, 37C, pH 6; remark: listed apart in the source
[12] = target: the molecule itself; experiment: clone self-interaction BLI, antibody on AHQ sensor against 1 µM of the same antibody
huIL-18Rβ-HisAvi [13] = target: T2, huIL-18Rβ-HisAvi; experiment: SPR T200, pH 7.4; sample stored at pH 6, 4 w 4C
huIL-18Rβ-HisAvi [14] = target: T2, huIL-18Rβ-HisAvi; experiment: SPR T200, pH 5 against pH 7.4

B1: P21 (antibody, human IgG1, kappa, V domains shown)
VH: QVQLQQSGPGLVKPSETLSLTCTVSGGSISNYYWTWIRQPPGKGLEWIGYISDSGSTNYNPSLKSRVTISVDTSKNQFSLKLSSVTAADTAVYYCARETIVVRGFYFYVMDVWGQGTTVTVSS
VL: AIQLTQSPSSLSASVGDRVTITCRASQGISSALAWYQQRPGKAPKLLIYDASNWESGVPSRFSGSGSGTDFTLTISSLQPEDFATYYCQQFNSYPWTFGQGTKVEIKR
notes: Human IgG
- Kd (cyIL-18Rβ-HisAvi [1]): 11 nM
- koff (cyIL-18Rβ-HisAvi [1]): 0.002 s⁻¹
- kon (cyIL-18Rβ-HisAvi [1]): 180000 M⁻¹ s⁻¹
- Kd (huIL-18Rβ-HisAvi [2]): 0.65 nM
- koff (huIL-18Rβ-HisAvi [2]): 0.00031 s⁻¹
- kon (huIL-18Rβ-HisAvi [2]): 480000 M⁻¹ s⁻¹
- Kd (huIL-18Rβ-HisAvi [3]): 5.6 nM
- koff (huIL-18Rβ-HisAvi [3]): 0.0013 s⁻¹
- kon (huIL-18Rβ-HisAvi [3]): 230000 M⁻¹ s⁻¹
- Kd (huIL-18Rβ-HisAvi [4]): 1.5 nM
- koff (huIL-18Rβ-HisAvi [4]): 0.00037 s⁻¹
- kon (huIL-18Rβ-HisAvi [4]): 250000 M⁻¹ s⁻¹
- IC50, LPS+IL-12 dependent IFNg production, human whole blood (human IL-18Rβ on cells): 1.34 nM
- Kd (huIL-18Rβ-HisAvi [5]): 1.3 nM
- koff (huIL-18Rβ-HisAvi [5]): 0.00034 s⁻¹
- kon (huIL-18Rβ-HisAvi [5]): 270000 M⁻¹ s⁻¹
- Kd (cyIL-18Rβ-HisAvi [6]): 18 nM
- Kd (huIL-18Rβ-HisAvi [7]): 1.4 nM
- Kd (cyIL-18Rβ-HisAvi [8]): 19 nM
- koff (cyIL-18Rβ-HisAvi [8]): 0.0029 s⁻¹
- kon (cyIL-18Rβ-HisAvi [8]): 150000 M⁻¹ s⁻¹
- Kd (huIL-18Rβ-HisAvi [9]): 1.8 nM
- koff (huIL-18Rβ-HisAvi [9]): 0.00043 s⁻¹
- kon (huIL-18Rβ-HisAvi [9]): 240000 M⁻¹ s⁻¹
- Kd (cyIL-18Rβ-HisAvi [10]): 11 nM
- koff (cyIL-18Rβ-HisAvi [10]): 0.002 s⁻¹
- kon (cyIL-18Rβ-HisAvi [10]): 180000 M⁻¹ s⁻¹
- Kd (huIL-18Rβ-HisAvi [11]): 0.65 nM
- koff (huIL-18Rβ-HisAvi [11]): 0.00031 s⁻¹
- kon (huIL-18Rβ-HisAvi [11]): 480000 M⁻¹ s⁻¹
- Average CSI-BLI ΔResponse [12]: -0.03 nm
- Kd (huIL-18Rβ-HisAvi [13]): 1.4 nM
- koff (huIL-18Rβ-HisAvi [13]): 0.00038 s⁻¹
- kon (huIL-18Rβ-HisAvi [13]): 260000 M⁻¹ s⁻¹
- KD ratio (KD pH 5/KD pH 7) (huIL-18Rβ-HisAvi [14]): 1.09
- kd ratio (kd pH 5/kd pH 7) (huIL-18Rβ-HisAvi [14]): 0.79
